According to US20260001961A1 (ALLIGATOR BIOSCIENCE, published 2026):

What was measured:
CD40 = target: T1, CD40 (UniProt P25942 21-193); experiment: Octet BLI; biotinylated CD40 on streptavidin sensor;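 note: octet RED96 biolayer interferometry, 300 s association then 300 s dissociation in kinetic buffer, buffer-blank referenced, fitted with a 1:1 Langmuir binding model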
T1 construct: also called biotinylated CD40; CD40 antigen

EpCAM = target: T2, EpCAM (UniProt P16422 24-265); experiment: Octet BLI; biotinylated EpCAM on streptavidin sensor;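 note: octet RED96 kinetics: 300 s association, then 300 s dissociation in 1x Kinetic buffer, buffer-blank referenced, Savitzky-Golay smoothed, fitted to a 1:1 Langmuir binding model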
T2 construct: also called biotinylated EpCAM
T2 sequence (looked up): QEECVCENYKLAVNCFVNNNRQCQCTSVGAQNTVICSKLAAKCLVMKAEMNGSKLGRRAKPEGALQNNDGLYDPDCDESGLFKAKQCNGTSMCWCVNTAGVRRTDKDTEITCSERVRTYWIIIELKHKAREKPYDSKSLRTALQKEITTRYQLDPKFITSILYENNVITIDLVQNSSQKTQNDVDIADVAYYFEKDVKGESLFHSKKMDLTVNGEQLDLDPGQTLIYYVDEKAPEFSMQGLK
Method: Kinetic measurements were performed using the Octet RED96 platform (ForteBIo). […] Association was followed for 300 seconds followed by dissociation in 1x Kinetic buffer for 300 seconds. Sensor tips were regenerated using 10 mM glycine, pH 1.7. Data generated were referenced by subtracting a parallel buffer blank, the baseline was aligned with the γ-axis, inter-step correlation by alignment against dissociation was performed and the data were smoothed by a Savitzky-Golay filter in the data analysis software (v.9.0.0.14). The processed data were fitted using a 1:1 Langmuir binding model with X2 as a measurement of fitting accuracy.
Binding affinities of all the variants were determined using Octet (Pall ForteBio).

T1 sequence (P25942 21-193 limits assumed): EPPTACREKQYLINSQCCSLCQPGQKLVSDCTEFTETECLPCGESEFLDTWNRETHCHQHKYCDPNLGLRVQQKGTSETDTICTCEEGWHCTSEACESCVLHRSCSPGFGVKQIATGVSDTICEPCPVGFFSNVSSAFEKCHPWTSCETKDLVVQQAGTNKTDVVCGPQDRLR

B1: AM_4110-4126 (bispecific antibody)
heavy 1: not shown
light: DIQMTQSPSSLSASVGDRVTITCRASQSISSYLNWYQEKPGKAPKLLIYAASSLQSGVPSRFSGSGSGTDFTLTISSLQPEDFATYYCQQYGRNPPTFGQGTKLEIKRTVAAPSVFIFPPSDEQLKSGTASVVCYLNNFYPREAKVQWKVDNALQSGNSQESVTEQDSKDSTYSLWSTLTLSKADYEKHKVYACEVTHQGLSSPVTKSFNRGEC
heavy 2: EVQLLEQSGAELVRPGTSVKISCKASGYAFTNYWLGWVKERPGHGLEWIGDIFPGSGNIHYNEKFKGKATLTADKSSSTAYMQLSSLTFEDSAVYFCARLRNWDEPMDYWGQGTTVTVSSASTKGPSVFPLAPSSKSTSGGTAALGCLVKDYFPEPVTVSWNSGALTSGVHTFPAVLQSSGLISLSSVVEVPSSSLGTQTYICNVNHKPSNTKVDKKVEPKSC
notes: AC_05293 backbone; also called double mutant I126G + Y180I; copies: 2 + 2 + 2
With B1 the Kd (CD40) was 1.5 nM, the koff (CD40) was 0.00051 s⁻¹ and the kon (CD40) was 350000 M⁻¹ s⁻¹. It also gave a Kd (EpCAM) of 5.1 nM, a koff (EpCAM) of 0.0009 s⁻¹ and a kon (EpCAM) of 170000 M⁻¹ s⁻¹.

B2: AM_4110-4134 (bispecific antibody)
heavy 1: not shown
light: DIQMTQSPSSLSASVGDRVTITCRASQSISSYLNWYQEKPGKAPKLLIYAASSLQSGVPSRFSGSGSGTDFTLTISSLQPEDFATYYCQQYGRNPPTFGQGTKLEIKRTVAAPSVFIFPPSDEQLKSGTASVVCYLNNFYPREAKVQWKVDNALQSGNSQESVTEQDSKDSTYSLWSTLTLSKADYEKHKVYACEVTHQGLSSPVTKSFNRGEC
heavy 2: EVQLLEQSGAELVRPGTSVKISCKASGYAFTNYWLGWVKERPGHGLEWIGDIFPGSGNIHYNEKFKGKATLTADKSSSTAYMQLSSLTFEDSAVYFCARLRNWDEPMDYWGQGTTVTVSSASTKGPSVFPLAPSSKSTSGGTAALGCLVKDYFPEPVTVSWNSGALTSGVHTFPAVLQSSGLYSLSSVVEGPSSSLGTQTYICNVNHKPSNTKVDKKVEPKSC
notes: AC_05293 backbone; also called double mutant I126G + V188G; copies: 2 + 2 + 2
Binder B2 has a Kd (CD40) of 0.88 nM, a koff (CD40) of 0.00075 s⁻¹ and a kon (CD40) of 860000 M⁻¹ s⁻¹. For the same binder, the Kd (EpCAM) was 5.3 nM, the koff (EpCAM) was 0.0011 s⁻¹ and the kon (EpCAM) was 200000 M⁻¹ s⁻¹.

B3: AM_4110-4131 (bispecific antibody)
heavy 1: not shown
light: DIQMTQSPSSLSASVGDRVTITCRASQSISSYLNWYQEKPGKAPKLLIYAASSLQSGVPSRFSGSGSGTDFTLTISSLQPEDFATYYCQQYGRNPPTFGQGTKLEIKRTVAAPSVFIFPPSDEQLKSGTASVVCYLNNFYPREAKVQWKVDNALQSGNSQESVTEQDSKDSTYSLWSTLTLSKADYEKHKVYACEVTHQGLSSPVTKSFNRGEC
heavy 2: EVQLLEQSGAELVRPGTSVKISCKASGYAFTNYWLGWVKERPGHGLEWIGDIFPGSGNIHYNEKFKGKATLTADKSSSTAYMQLSSLTFEDSAVYFCARLRNWDEPMDYWGQGTTVTVSSASTKGPSVFPLAPSSKSTSGGTAALGCLVKDYFPEPVTVSWNSGALTSGVHTFPAVLQSSGLWSLSSVVEVPSSSLGTQTYICNVNHKPSNTKVDKKVEPKSC
notes: AC_05293 backbone; also called double mutant I126G + Y180W; copies: 2 + 2 + 2
For B3, the Kd (CD40) was 1.2 nM, the koff (CD40) was 0.00056 s⁻¹ and the kon (CD40) was 450000 M⁻¹ s⁻¹. The Kd (EpCAM) was 4.7 nM, the koff (EpCAM) was 0.00095 s⁻¹ and the kon (EpCAM) was 200000 M⁻¹ s⁻¹.

B4: AM_4110-4133 (bispecific antibody)
heavy 1: not shown
light: DIQMTQSPSSLSASVGDRVTITCRASQSISSYLNWYQEKPGKAPKLLIYAASSLQSGVPSRFSGSGSGTDFTLTISSLQPEDFATYYCQQYGRNPPTFGQGTKLEIKRTVAAPSVFIFPPSDEQLKSGTASVVCYLNNFYPREAKVQWKVDNALQSGNSQESVTEQDSKDSTYSLWSTLTLSKADYEKHKVYACEVTHQGLSSPVTKSFNRGEC
heavy 2: EVQLLEQSGAELVRPGTSVKISCKASGYAFTNYWLGWVKERPGHGLEWIGDIFPGSGNIHYNEKFKGKATLTADKSSSTAYMQLSSLTFEDSAVYFCARLRNWDEPMDYWGQGTTVTVSSASTKGPSVFPLAPSSKSTSGGTAALGCLVKDYFPEPVTVSWNSGALTSGVHTFPAVLQSSGLYSLTSVVEVPSSSLGTQTYICNVNHKPSNTKVDKKVEPKSC
notes: AC_05293 backbone; also called double mutant I126G + S183T; copies: 2 + 2 + 2
B4 was tested, and the Kd (CD40) was 1.1 nM, the koff (CD40) was 0.00075 s⁻¹ and the kon (CD40) was 680000 M⁻¹ s⁻¹. The Kd (EpCAM) was 4.9 nM, the koff (EpCAM) was 0.00096 s⁻¹ and the kon (EpCAM) was 190000 M⁻¹ s⁻¹.
